Source: IntAct's records for PubMed 24019758

B1: Transcription factor p65 (Mus musculus), Q04207 (parent)
chain: MDDLFPLIFPSEPAQASGPYVEIIEQPKQRGMRFRYKCEGRSAGSIPGERSTDTTKTHPTIKINGYTGPGTVRISLVTKDPPHRPHPHELVGKDCRDGYYEADLCPDRSIHSFQNLGIQCVKKRDLEQAISQRIQTNNNPFHVPIEEQRGDYDLNAVRLCFQVTVRDPAGRPLLLTPVLSHPIFDNRAPNTAELKICRVNRNSGSCLGGDEIFLLCDKVQKEDIEVYFTGPGWEARGSFSQADVHRQVAIVFRTPPYADPSLQAPVRVSMQLRRPSDRELSEPMEFQYLPDTDDRHRIEEKRKRTYETFKSIMKKSPFNGPTEPRPPTRRIAVPTRNSTSVPKPAPQPYTFPASLSTINFDEFSPMLLPSGQISNQALALAPSSAPVLAQTMVPSSAMVPLAQPPAPAPVLTPGPPQSLSAPVPKSTQAGEGTLSEALLHLQFDADEDLGALLGNSTDPGVFTDLASVDNSEFQQLLNQGVSMSHSTAEPMLMEYPEAITRLVTGSQRPPDPAPTPLGTSGLPNGLSGDEDFSSIADMDFSALLSQISS

Tests used:
cbp_mouse Crebbp, P45481 [1] = variants of: B1; conditions: with cbp_mouse Crebbp
[2] = variants of: B1; conditions: with ep300_mouse Ep300, B2RWS6
cbp_mouse Crebbp, P45481 [3] = variants of: B1; conditions: with cbp_mouse Crebbp; remark: listed apart in the source
cbp_mouse Crebbp, P45481 [4] = variants of: B1; conditions: with cbp_mouse Crebbp; remark: listed apart in the source
cbp_mouse Crebbp, P45481 [5] = variants of: B1; conditions: with cbp_mouse Crebbp; remark: listed apart in the source

Sequence of ep300_mouse Ep300, B2RWS6 (B2RWS6 whole entry): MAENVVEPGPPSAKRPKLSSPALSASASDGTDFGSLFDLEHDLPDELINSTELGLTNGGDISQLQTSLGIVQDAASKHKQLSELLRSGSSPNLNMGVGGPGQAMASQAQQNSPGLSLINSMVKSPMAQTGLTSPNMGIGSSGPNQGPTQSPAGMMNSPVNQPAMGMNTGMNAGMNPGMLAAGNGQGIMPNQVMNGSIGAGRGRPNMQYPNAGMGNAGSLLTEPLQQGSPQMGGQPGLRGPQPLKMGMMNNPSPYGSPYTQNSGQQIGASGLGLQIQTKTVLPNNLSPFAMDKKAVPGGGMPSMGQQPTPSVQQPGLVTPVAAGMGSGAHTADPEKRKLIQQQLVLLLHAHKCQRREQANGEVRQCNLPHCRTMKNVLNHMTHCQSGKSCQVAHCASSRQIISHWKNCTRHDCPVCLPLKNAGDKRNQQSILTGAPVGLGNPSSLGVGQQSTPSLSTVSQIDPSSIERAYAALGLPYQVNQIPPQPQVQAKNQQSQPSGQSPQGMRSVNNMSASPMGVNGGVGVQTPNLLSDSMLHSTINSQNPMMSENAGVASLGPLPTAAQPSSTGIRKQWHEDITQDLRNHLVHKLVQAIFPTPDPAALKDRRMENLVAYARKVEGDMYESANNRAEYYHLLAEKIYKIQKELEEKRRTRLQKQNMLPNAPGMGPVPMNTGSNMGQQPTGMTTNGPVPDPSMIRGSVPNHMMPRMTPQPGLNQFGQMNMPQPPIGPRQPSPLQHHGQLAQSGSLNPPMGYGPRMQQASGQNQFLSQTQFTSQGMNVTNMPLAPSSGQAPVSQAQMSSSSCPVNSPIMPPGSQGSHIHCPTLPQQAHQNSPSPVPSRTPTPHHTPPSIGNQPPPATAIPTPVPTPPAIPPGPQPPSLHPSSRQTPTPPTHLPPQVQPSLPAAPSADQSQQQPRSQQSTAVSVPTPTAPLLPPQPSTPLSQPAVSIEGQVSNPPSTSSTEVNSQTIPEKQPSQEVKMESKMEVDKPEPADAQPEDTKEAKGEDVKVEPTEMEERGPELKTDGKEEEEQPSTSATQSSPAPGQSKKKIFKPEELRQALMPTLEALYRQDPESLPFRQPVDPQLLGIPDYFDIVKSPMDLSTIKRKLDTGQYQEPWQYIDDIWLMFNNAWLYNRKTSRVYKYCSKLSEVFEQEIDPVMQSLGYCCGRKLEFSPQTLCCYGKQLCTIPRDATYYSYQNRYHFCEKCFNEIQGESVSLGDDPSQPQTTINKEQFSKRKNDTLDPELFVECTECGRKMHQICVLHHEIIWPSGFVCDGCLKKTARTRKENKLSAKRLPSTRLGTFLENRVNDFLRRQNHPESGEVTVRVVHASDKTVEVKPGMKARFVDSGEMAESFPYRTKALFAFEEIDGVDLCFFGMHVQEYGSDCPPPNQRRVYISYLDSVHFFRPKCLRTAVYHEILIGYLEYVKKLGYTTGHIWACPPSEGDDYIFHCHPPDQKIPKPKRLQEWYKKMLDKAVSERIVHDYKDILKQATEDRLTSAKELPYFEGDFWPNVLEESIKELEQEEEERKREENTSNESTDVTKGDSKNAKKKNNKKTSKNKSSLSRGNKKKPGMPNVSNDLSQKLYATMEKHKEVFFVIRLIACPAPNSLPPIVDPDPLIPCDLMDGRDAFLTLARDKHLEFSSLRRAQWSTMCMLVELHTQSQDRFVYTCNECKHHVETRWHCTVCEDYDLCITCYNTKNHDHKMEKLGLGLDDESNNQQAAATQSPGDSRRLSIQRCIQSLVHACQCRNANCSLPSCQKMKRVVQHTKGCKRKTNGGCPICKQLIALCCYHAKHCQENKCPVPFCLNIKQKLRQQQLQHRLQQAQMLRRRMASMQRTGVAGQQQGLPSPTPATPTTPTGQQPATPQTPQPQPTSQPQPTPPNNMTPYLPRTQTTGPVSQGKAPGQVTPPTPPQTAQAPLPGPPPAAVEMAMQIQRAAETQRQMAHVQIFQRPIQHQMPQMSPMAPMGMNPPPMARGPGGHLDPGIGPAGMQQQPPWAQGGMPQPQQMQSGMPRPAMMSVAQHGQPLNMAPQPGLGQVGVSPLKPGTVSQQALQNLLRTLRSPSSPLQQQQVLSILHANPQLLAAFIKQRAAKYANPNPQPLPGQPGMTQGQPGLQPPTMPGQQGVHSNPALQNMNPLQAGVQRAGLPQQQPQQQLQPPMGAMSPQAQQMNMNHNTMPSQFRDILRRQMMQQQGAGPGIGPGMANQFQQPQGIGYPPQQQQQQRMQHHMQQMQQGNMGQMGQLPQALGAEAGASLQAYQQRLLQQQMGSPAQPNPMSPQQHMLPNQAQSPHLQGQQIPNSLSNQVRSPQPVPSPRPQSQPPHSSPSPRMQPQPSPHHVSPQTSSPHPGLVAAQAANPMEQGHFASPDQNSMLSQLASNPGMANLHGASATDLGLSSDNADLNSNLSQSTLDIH
Sequence of cbp_mouse Crebbp, P45481 (P45481 whole entry): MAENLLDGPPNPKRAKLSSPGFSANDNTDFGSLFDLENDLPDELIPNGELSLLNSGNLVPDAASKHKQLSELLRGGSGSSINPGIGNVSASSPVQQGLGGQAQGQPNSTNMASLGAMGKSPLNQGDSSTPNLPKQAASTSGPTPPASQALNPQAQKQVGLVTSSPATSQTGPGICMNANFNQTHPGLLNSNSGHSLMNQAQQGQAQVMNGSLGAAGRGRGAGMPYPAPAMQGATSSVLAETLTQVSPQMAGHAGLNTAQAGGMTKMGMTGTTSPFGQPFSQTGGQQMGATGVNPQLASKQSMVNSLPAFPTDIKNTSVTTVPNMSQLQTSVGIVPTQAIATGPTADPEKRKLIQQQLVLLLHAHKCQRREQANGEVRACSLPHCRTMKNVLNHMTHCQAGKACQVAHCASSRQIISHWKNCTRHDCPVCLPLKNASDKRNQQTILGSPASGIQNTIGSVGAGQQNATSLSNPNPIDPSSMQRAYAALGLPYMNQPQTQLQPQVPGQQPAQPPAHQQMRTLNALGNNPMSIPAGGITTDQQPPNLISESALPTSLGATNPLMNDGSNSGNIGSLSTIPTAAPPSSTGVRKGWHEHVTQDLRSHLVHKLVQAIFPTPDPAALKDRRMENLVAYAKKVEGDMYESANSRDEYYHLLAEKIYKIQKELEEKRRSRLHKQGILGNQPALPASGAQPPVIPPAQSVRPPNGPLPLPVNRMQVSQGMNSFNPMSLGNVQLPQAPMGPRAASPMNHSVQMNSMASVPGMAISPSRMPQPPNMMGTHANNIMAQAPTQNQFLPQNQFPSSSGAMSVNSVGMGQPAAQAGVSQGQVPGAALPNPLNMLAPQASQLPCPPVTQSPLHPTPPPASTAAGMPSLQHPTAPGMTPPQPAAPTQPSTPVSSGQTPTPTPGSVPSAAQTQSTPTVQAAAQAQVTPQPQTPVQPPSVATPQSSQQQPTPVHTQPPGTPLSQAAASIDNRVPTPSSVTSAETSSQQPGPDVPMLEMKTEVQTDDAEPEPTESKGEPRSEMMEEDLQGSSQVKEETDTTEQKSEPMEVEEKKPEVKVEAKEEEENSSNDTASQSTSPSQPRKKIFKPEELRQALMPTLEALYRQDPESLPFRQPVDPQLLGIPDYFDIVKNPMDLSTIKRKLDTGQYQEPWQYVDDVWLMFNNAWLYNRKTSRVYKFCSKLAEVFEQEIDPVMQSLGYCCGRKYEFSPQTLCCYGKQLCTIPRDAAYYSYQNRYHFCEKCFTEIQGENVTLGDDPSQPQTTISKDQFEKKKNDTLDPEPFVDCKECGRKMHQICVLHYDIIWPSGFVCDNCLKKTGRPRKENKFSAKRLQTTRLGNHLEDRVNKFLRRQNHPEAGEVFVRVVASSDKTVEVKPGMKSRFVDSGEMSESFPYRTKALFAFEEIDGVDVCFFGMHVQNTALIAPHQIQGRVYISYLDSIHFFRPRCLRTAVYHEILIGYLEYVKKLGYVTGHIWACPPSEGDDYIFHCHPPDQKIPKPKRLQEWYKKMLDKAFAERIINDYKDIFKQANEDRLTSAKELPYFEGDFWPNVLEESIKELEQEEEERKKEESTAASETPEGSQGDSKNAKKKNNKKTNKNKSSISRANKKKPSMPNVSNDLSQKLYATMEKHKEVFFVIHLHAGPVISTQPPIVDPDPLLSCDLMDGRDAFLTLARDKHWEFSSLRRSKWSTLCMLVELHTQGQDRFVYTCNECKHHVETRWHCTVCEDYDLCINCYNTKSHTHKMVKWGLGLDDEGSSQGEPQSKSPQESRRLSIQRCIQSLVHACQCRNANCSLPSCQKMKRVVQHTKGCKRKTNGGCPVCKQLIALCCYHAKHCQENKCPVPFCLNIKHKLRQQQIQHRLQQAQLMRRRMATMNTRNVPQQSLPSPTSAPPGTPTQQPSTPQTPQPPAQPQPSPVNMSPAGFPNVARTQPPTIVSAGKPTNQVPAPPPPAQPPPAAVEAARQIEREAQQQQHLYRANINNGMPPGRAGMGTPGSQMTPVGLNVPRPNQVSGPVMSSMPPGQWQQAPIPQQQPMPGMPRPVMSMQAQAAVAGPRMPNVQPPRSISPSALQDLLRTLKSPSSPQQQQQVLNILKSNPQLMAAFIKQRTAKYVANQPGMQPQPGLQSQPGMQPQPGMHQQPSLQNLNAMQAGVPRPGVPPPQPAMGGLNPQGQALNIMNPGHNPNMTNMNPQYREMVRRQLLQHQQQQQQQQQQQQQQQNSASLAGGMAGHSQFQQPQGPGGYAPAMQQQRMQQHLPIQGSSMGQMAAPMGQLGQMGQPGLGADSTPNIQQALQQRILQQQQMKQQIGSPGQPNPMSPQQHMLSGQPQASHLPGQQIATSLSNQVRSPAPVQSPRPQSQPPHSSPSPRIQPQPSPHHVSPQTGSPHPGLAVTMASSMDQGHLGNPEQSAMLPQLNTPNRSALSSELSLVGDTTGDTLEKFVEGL

| Variant | effect of a mutation on the interaction (cbp_mouse Crebbp, P45481 [1]) | effect of a mutation on the interaction [2] | effect of a mutation on the interaction (cbp_mouse Crebbp, P45481 [3]) | effect of a mutation on the interaction (cbp_mouse Crebbp, P45481 [4]) | effect of a mutation on the interaction (cbp_mouse Crebbp, P45481 [5]) |
| --- | --- | --- | --- | --- | --- |
| MDDLFPLIFPSEPAQASGPYVEIIEQPKQRGMRFRYKCEGRSAGSIPGERSTDTTKTHPTIKINGYTGPGTVRISLVTKDPPHRPHPHELVGKDCRDGYYEADLCPDRSIHSFQNLGIQCVKKRDLEQAISQRIQTNNNPFHVPIEEQRGDYDLNAVRLCFQVTVRDPAGRPLLLTPVLSHPIFDNRAPNTAELKICRVNRNSGSCLGGDEIFLLCDKVQKEDIEVYFTGPGWEARGSFSQADVHRQVAIVFRTPPYADPSLQAPVRVSMQLRRPADRELSEPMEFQYLPDTDDRHRIEEKRKRTYETFKSIMKKSPFNGPTEPRPPTRRIAVPTRNSTSVPKPAPQPYTFPASLSTINFDEFSPMLLPSGQISNQALALAPSSAPVLAQTMVPSSAMVPLAQPPAPAPVLTPGPPQSLSAPVPKSTQAGEGTLSEALLHLQFDADEDLGALLGNSTDPGVFTDLASVDNSEFQQLLNQGVSMSHSTAEPMLMEYPEAITRLVTGSQRPPDPAPTPLGTSGLPNGLSGDEDFSSIADMDFSALLSQISS [S276A] | decreasing interaction strength | decreasing interaction strength | – | – | – |
| MDDLFPLIFPSEPAQASGPYVEIIEQPKQRGMRFRYKCEGRSAGSIPGERSTDTTKTHPTIKINGYTGPGTVRISLVTKDPPHRPHPHELVGKDCRDGYYEADLCPDRSIHSFQNLGIQCVKKRDLEQAISQRIQTNNNPFHVPIEEQRGDYDLNAVRLCFQVTVRDPAGRPLLLTPVLSHPIFDNRAPNTAELKICRVNRNSGSCLGGDEIFLLCDKVQKEDIEVYFTGPGWEARGSFSQADVHRQVAIVFRTPPYADPSLQAPVRVSMQLRRPSDRELSEPMEFQYLPDTDDRHRIEEKRKRTYETFKSIMKKSPFNGPTEPRPPTRRIAVPTRNSTSVPKPAPQPYTFPASLSTINFDEFSPMLLPSGQISNQALALAPSSAPVLAQTMVPSSAMVPLAQPPAPAPVLTPGPPQSLSAPVPKSTQAGEGTLSEALLHLQFDADEDAGALLGNSTDPGVFTDLAAVDNSEAQQLLNQGVSMSHSTAEPMLMEYPEAITRLVTGSQRPPDPAPTPLGTSGLPNGLSGDEDFSSIADMDFSALLSQISS [L449A;S467A;F473A] | decreasing interaction strength | – | disrupting interaction strength | – | – |
| MDDLFPLIFPSEPAQASGPYVEIIEQPKQRGMRFRYKCEGRSAGSIPGERSTDTTKTHPTIKINGYTGPGTVRISLVTKDPPHRPHPHELVGKDCRDGYYEADLCPDRSIHSFQNLGIQCVKKRDLEQAISQRIQTNNNPFHVPIEEQRGDYDLNAVRLCFQVTVRDPAGRPLLLTPVLSHPIFDNRAPNTAELKICRVNRNSGSCLGGDEIFLLCDKVQKEDIEVYFTGPGWEARGSFSQADVHRQVAIVFRTPPYADPSLQAPVRVSMQLRRPSDRELSEPMEFQYLPDTDDRHRIEEKRKRTYETFKSIMKKSPFNGPTEPRPPTRRIAVPTRNSTSVPKPAPQPYTFPASLSTINFDEFSPMLLPSGQISNQALALAPSSAPVLAQTMVPSSAMVPLAQPPAPAPVLTPGPPQSLSAPVPKSTQAGEGTLSEALLHLQFDADEDAGALLGNSTDPGVFTDLASVDNSEAQQLLNQGVSMSHSTAEPMLMEYPEAITRLVTGSQRPPDPAPTPLGTSGLPNGLSGDEDFSSIADMDFSALLSQISS [L449A;F473A] | decreasing interaction strength | decreasing interaction strength | disrupting interaction strength | disrupting interaction strength | – |
| MDDLFPLIFPSEPAQASGPYVEIIEQPKQRGMRFRYKCEGRSAGSIPGERSTDTTKTHPTIKINGYTGPGTVRISLVTKDPPHRPHPHELVGKDCRDGYYEADLCPDRSIHSFQNLGIQCVKKRDLEQAISQRIQTNNNPFHVPIEEQRGDYDLNAVRLCFQVTVRDPAGRPLLLTPVLSHPIFDNRAPNTAELKICRVNRNSGSCLGGDEIFLLCDKVQKEDIEVYFTGPGWEARGSFSQADVHRQVAIVFRTPPYADPSLQAPVRVSMQLRRPSDRELSEPMEFQYLPDTDDRHRIEEKRKRTYETFKSIMKKSPFNGPTEPRPPTRRIAVPTRNSTSVPKPAPQPYTFPASLSTINFDEFSPMLLPSGQISNQALALAPSSAPVLAQTMVPSSAMVPLAQPPAPAPVLTPGPPQSLSAPVPKSTQAGEGTLSEALLHLQFDADEDAGALLGNSTDPGVFTDLASVDNSEFQQLLNQGVSMSHSTAEPMLMEYPEAITRLVTGSQRPPDPAPTPLGTSGLPNGLSGDEDFSSIADMDFSALLSQISS [L449A] | – | – | – | disrupting interaction strength | decreasing interaction strength |
| MDDLFPLIFPSEPAQASGPYVEIIEQPKQRGMRFRYKCEGRSAGSIPGERSTDTTKTHPTIKINGYTGPGTVRISLVTKDPPHRPHPHELVGKDCRDGYYEADLCPDRSIHSFQNLGIQCVKKRDLEQAISQRIQTNNNPFHVPIEEQRGDYDLNAVRLCFQVTVRDPAGRPLLLTPVLSHPIFDNRAPNTAELKICRVNRNSGSCLGGDEIFLLCDKVQKEDIEVYFTGPGWEARGSFSQADVHRQVAIVFRTPPYADPSLQAPVRVSMQLRRPSDRELSEPMEFQYLPDTDDRHRIEEKRKRTYETFKSIMKKSPFNGPTEPRPPTRRIAVPTRNSTSVPKPAPQPYTFPASLSTINFDEFSPMLLPSGQISNQALALAPSSAPVLAQTMVPSSAMVPLAQPPAPAPVLTPGPPQSLSAPVPKSTQAGEGTLSEALLHLQFDADEDLGALLGNSTDPGVFTDAASVDNSEFQQLLNQGVSMSHSTAEPMLMEYPEAITRLVTGSQRPPDPAPTPLGTSGLPNGLSGDEDFSSIADMDFSALLSQISS [L465A] | – | – | – | disrupting interaction strength | decreasing interaction strength |
| MDDLFPLIFPSEPAQASGPYVEIIEQPKQRGMRFRYKCEGRSAGSIPGERSTDTTKTHPTIKINGYTGPGTVRISLVTKDPPHRPHPHELVGKDCRDGYYEADLCPDRSIHSFQNLGIQCVKKRDLEQAISQRIQTNNNPFHVPIEEQRGDYDLNAVRLCFQVTVRDPAGRPLLLTPVLSHPIFDNRAPNTAELKICRVNRNSGSCLGGDEIFLLCDKVQKEDIEVYFTGPGWEARGSFSQADVHRQVAIVFRTPPYADPSLQAPVRVSMQLRRPSDRELSEPMEFQYLPDTDDRHRIEEKRKRTYETFKSIMKKSPFNGPTEPRPPTRRIAVPTRNSTSVPKPAPQPYTFPASLSTINFDEFSPMLLPSGQISNQALALAPSSAPVLAQTMVPSSAMVPLAQPPAPAPVLTPGPPQSLSAPVPKSTQAGEGTLSEALLHLQFDADEDLGALLGNSTDPGVFTDLAAVDNSEFQQLLNQGVSMSHSTAEPMLMEYPEAITRLVTGSQRPPDPAPTPLGTSGLPNGLSGDEDFSSIADMDFSALLSQISS [S467A] | decreasing interaction strength | decreasing interaction strength | – | – | – |
| MDDLFPLIFPSEPAQASGPYVEIIEQPKQRGMRFRYKCEGRSAGSIPGERSTDTTKTHPTIKINGYTGPGTVRISLVTKDPPHRPHPHELVGKDCRDGYYEADLCPDRSIHSFQNLGIQCVKKRDLEQAISQRIQTNNNPFHVPIEEQRGDYDLNAVRLCFQVTVRDPAGRPLLLTPVLSHPIFDNRAPNTAELKICRVNRNSGSCLGGDEIFLLCDKVQKEDIEVYFTGPGWEARGSFSQADVHRQVAIVFRTPPYADPSLQAPVRVSMQLRRPSDRELSEPMEFQYLPDTDDRHRIEEKRKRTYETFKSIMKKSPFNGPTEPRPPTRRIAVPTRNSTSVPKPAPQPYTFPASLSTINFDEFSPMLLPSGQISNQALALAPSSAPVLAQTMVPSSAMVPLAQPPAPAPVLTPGPPQSLSAPVPKSTQAGEGTLSEALLHLQFDADEDLGALLGNSTDPGVFTDLASVDNSEAQQLLNQGVSMSHSTAEPMLMEYPEAITRLVTGSQRPPDPAPTPLGTSGLPNGLSGDEDFSSIADMDFSALLSQISS [F473A] | – | – | – | disrupting interaction strength | – |
